Test results reported in patent US8357833B2, “Corn plants and seed enhanced for asparagine and protein” (priority 2007, dated 2013).
Like-named read-outs stand apart in the source and are kept apart here. Blank lines part the entries; values can stand above or below the molecule they belong to.

What was measured:
[1] = target: T1, Zea mays asparagine synthetase Zm AsnS4 (SEQ ID NO: 51, encoded by SEQ ID NO: 50) (Zea mays, UniProt B5U8J9); test: Kinetics of recombinant his-tagged, refolded maize asparagine synthetase AsnS4 (substrate titration, asparagine by HPLC); type: biochemical
T1 construct: 588 aa
T1 sequence (B5U8J9 1-588): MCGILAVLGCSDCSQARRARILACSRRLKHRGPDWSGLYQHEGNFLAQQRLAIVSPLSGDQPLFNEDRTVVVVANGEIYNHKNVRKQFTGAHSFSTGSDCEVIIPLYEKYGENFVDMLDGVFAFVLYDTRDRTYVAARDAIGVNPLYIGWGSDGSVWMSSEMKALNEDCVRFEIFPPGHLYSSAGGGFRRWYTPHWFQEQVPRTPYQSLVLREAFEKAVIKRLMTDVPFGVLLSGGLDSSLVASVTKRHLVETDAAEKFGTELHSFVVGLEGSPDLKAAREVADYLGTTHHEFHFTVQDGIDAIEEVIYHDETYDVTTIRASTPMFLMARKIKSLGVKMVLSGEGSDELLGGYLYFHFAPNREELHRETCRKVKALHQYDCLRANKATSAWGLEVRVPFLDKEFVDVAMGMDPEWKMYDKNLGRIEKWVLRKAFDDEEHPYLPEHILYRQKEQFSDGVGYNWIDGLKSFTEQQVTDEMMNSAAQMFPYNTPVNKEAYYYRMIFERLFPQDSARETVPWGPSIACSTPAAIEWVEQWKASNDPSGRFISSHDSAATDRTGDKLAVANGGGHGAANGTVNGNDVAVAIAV
Experimental: The effect of expression of asparagine synthetase genes on asparagine synthetase activity was measured in transgenic events of pMON79706 and pMON92870. Frozen, ground leaf tissue was aliquoted (200-400 mg) into wells from a precooled 96 deep-well plate. Protein was extracted in Buffer A (100 mM Hepes-OH, pH 8.0, 0.1 mM EDTA, 10 mM MgCl2, 2 mM aspartate, 0.5 mM DTT, 67 mM mercaptoethanol, 20% (v/v) glycerol, 0.1 mM ATP, 1% (v/v) P9599 (Sigma Company), 25 mM KCl). A small amount of sand was added to each well. Buffer A was then added to the leaf tissue in the wells at a ratio of 4:1 (buffer:tissue). The plates were then agitated in a paint shaker for 2 min. to mix the sample and then centrifuged at 5000×g for 10 minutes. The supernatant (100-200 μL) was desalted in a 96-well macro spin plate (SNS S025L, The Nest Group Inc., Southboro, Mass.) equilibrated in buffer A. The supernatant was then either assayed immediately or frozen in liquid nitrogen and maintained at −80° C. until used. To assay asparagine synthetase activity, desalted protein extracts (10-50 μL) were added to wells containing 100 μL assay solution (100 mM Hepes, pH 8.0, 10 mM MgCl2, 2 mM aspartate, 5 mM DTT, 10 mM ATP, 1 mM amino(oxy)acetic acid (aspartate amino transferase inhibitor), 1 mM aspartic semialdehyde (asparaginase inhibitor). To start the reaction, glutamine (final concentration of 2 mM for standard assay) was added to the solution, which was then mixed. The assay mixture was then incubated for 1 to 2 hours. The reaction was then stopped by the addition of an equal volume of 20% (w/v) trichloroacetic acid. The mixture was then filtered to remove precipitate and asparagine was measured by HPLC. Sample size was increased from 0.5 μL to 2.5 μL for HPLC, excitation wavelength was reduced from 340 nm to 235 nm, and fluorimeter gain was increased from 10 to 13. […]

[2] = target: T2, Zea mays asparagine synthetase Zm AsnS2 (SEQ ID NO: 4, encoded by SEQ ID NO: 3) (Zea mays, UniProt B5U8J7); test: Kinetics of recombinant his-tagged, refolded maize asparagine synthetase AsnS2 (substrate titration, asparagine by HPLC); type: biochemical; details: AsnS2 versus the other maize AsnS enzymes
T2 construct: 606 aa
T2 sequence (B5U8J7 1-606): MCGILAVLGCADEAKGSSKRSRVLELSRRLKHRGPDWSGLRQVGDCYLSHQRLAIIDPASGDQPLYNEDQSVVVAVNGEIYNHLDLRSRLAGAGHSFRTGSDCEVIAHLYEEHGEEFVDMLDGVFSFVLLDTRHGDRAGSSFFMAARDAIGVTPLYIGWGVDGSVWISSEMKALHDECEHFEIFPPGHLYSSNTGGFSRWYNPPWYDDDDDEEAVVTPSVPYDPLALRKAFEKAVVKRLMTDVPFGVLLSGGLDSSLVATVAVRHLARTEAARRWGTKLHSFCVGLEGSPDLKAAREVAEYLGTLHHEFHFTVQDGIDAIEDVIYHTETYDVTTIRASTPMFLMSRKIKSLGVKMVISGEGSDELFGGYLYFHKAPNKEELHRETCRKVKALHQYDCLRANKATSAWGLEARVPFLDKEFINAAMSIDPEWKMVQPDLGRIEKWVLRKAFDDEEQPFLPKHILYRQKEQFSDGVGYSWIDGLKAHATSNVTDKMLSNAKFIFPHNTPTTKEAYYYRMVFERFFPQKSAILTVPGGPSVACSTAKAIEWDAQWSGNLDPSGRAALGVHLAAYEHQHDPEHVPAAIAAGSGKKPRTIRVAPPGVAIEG
Experimental: The effect of expression of asparagine synthetase genes on asparagine synthetase activity was measured in transgenic events of pMON79706 and pMON92870. Frozen, ground leaf tissue was aliquoted (200-400 mg) into wells from a precooled 96 deep-well plate. Protein was extracted in Buffer A (100 mM Hepes-OH, pH 8.0, 0.1 mM EDTA, 10 mM MgCl2, 2 mM aspartate, 0.5 mM DTT, 67 mM mercaptoethanol, 20% (v/v) glycerol, 0.1 mM ATP, 1% (v/v) P9599 (Sigma Company), 25 mM KCl). A small amount of sand was added to each well. Buffer A was then added to the leaf tissue in the wells at a ratio of 4:1 (buffer:tissue). The plates were then agitated in a paint shaker for 2 min. to mix the sample and then centrifuged at 5000×g for 10 minutes. The supernatant (100-200 μL) was desalted in a 96-well macro spin plate (SNS S025L, The Nest Group Inc., Southboro, Mass.) equilibrated in buffer A. The supernatant was then either assayed immediately or frozen in liquid nitrogen and maintained at −80° C. until used. […] The mixture was then filtered to remove precipitate and asparagine was measured by HPLC. […]

[3] = substrate: Nc1ncnc2c1ncn2[C@@H]1O[C@H](COP(=O)(O)OP(=O)(O)OP(=O)(O)O)[C@@H](O)[C@H]1O; test: Kinetics of recombinant his-tagged, refolded maize asparagine synthetase AsnS1 (substrate titration, asparagine by HPLC); type: biochemical, Zea mays; details: other: Zm AsnS1, 100 mM Hepes, pH 8.0, 10 mM MgCl2
Source text: (§1) This example describes the cloning of the nucleotide sequence for AsnS1 (SEQ ID NO: 1), AsnS2 (SEQ ID NO: 3), AsnS3 (SEQ ID NO: 5) and AsnS4 (SEQ ID NO: 50) into E. coli expression vectors, as well as the expression, purification and kinetics of the recombinant forms of the four AsnS isoforms.
(§2) These vectors are expected to produce recombinant proteins with C-terminal histidine tags.
(§3) The E. coli expression vectors described in the previous paragraph were used to transform Rosetta DE5™ E. coli cells (Novagen). Transformed cells were transferred from solid LB media plates and grown in liquid LB media containing standard concentrations of kanomycin (50 μM) and chloramphenicol (25 μM) at 37° C. An overnight culture was used to inoculate a 25 mL culture, which was grown at 37° C. until mid log phase (OD600=0.40.6). Cells were then transferred to 20° C. for 30 min after which IPTG was added to a final concentration of 0.5 mM. The cells were then grown at 20° C. for 12 hours and cell pellets were harvested by centrifugation.
(§4) The protein was recovered from the insoluble fraction while bound to a nickel column. Buffers used for the purification of recombinant AsnS were: […]

[4] = substrate: NC(=O)CC[C@H](N)C(=O)O; test: as above; type: biochemical, Zea mays; details: other: Zm AsnS1, 100 mM Hepes, pH 8.0, 10 mM MgCl2
Source text: as §1, §2, §3, §4

[5] = substrate: N[C@@H](CC(=O)O)C(=O)O; test: as above; type: biochemical, Zea mays; details: other: Zm AsnS1, 100 mM Hepes, pH 8.0, 10 mM MgCl2
Source text: as §1, §2, §3, §4

[6] = substrate: Nc1ncnc2c1ncn2[C@@H]1O[C@H](COP(=O)(O)OP(=O)(O)OP(=O)(O)O)[C@@H](O)[C@H]1O; test: Kinetics of recombinant his-tagged, refolded maize asparagine synthetase AsnS3 (substrate titration, asparagine by HPLC); type: biochemical, Zea mays; details: other: Zm AsnS3, 100 mM Hepes, pH 8.0, 10 mM MgCl2
Source text: as §1, §2, §3, §4

[7] = substrate: NC(=O)CC[C@H](N)C(=O)O; test: as above; type: biochemical, Zea mays; details: other: Zm AsnS3, 100 mM Hepes, pH 8.0, 10 mM MgCl2
Source text: as §1, §2, §3, §4

[8] = substrate: N[C@@H](CC(=O)O)C(=O)O; test: as above; type: biochemical, Zea mays; details: other: Zm AsnS3, 100 mM Hepes, pH 8.0, 10 mM MgCl2
Source text: as §1, §2, §3, §4

[9] = substrate: Nc1ncnc2c1ncn2[C@@H]1O[C@H](COP(=O)(O)OP(=O)(O)OP(=O)(O)O)[C@@H](O)[C@H]1O; test: Kinetics of recombinant his-tagged, refolded maize asparagine synthetase AsnS2 (substrate titration, asparagine by HPLC); type: biochemical, Zea mays; details: other: Zm AsnS2, 100 mM Hepes, pH 8.0, 10 mM MgCl2
Source text: as §1, §2, §3, §4

[10] = substrate: NC(=O)CC[C@H](N)C(=O)O; test: as above; type: biochemical, Zea mays; details: other: Zm AsnS2, 100 mM Hepes, pH 8.0, 10 mM MgCl2
Source text: as §1, §2, §3, §4

[11] = substrate: N[C@@H](CC(=O)O)C(=O)O; test: as above; type: biochemical, Zea mays; details: other: Zm AsnS2, 100 mM Hepes, pH 8.0, 10 mM MgCl2
Source text: as §1, §2, §3, §4

Molecule: Nc1ncnc2c1ncn2[C@@H]1O[C@H](COP(=O)(O)OP(=O)(O)OP(=O)(O)O)[C@@H](O)[C@H]1O [ATP]
Km ([1]; read-out: Km(ATP), 100 mM Hepes, pH 8.0, 10 mM MgCl2): 128 µM

Km ([1]; 100 mM Hepes, pH 8.0, 10 mM MgCl2, read-out: Km(Gln)): 233 µM
Molecule: NC(=O)CC[C@H](N)C(=O)O [Gln, glutamine]
Km (Gln) for AsnS2 compared with the other enzymes [2]: several fold lower than the other enzymes

B1: Zea mays asparagine synthetase Zm AsnS1 (SEQ ID NO: 2, encoded by SEQ ID NO: 1) (Zea mays) (protein)
chain: MICDKCSLVRSFFVGRPRDITSLYKKAGSCRTMCGILAVLGVAEVSLAKRSRIIELSRRLRHRGPDWSGLHCHEDCYLAHQRLAIIDPTSGDQPLYNEDKTVVVTVNGEIYNHEELKAKLKTHEFQTGSDCEVIAHLYEEYGEEFVDMLDGMFSFVLLDTRDKSFIAARDAIGICPLYMGWGLDGSVWFSSEMKALSDDCERFITFPPGHLYSSKTGGLRRWYNPPWFSETVPSTPYNALFLREMFEKAVIKRLMTDVPFGVLLSGGLDSSLVASVASRHLNETKVDRQWGNKLHTFCIGLKGSPDLKAAREVADYLSTVHHEFHFTVQEGIDALEEVIYHIETYDVTTIRASTPMFLMSRKIKSLGVKMVISGEGSDEIFGGYLYFHKAPNKKEFHEETCRKIKALHLYDCLRANKATSAWGVEARVPFLDKSFISVAMDIDPEWKMIKRDLGRIEKWVIRNAFDDDERPYLPKHILYRQKEQFSDGVGYSWIDGLKDHASQHVSDSMMMNAGFVYPENTPTTKEGYYYRMIFEKFFPKPAARSTVPGGPSVACSTAKAVEWDASWSKNLDPSGRAALGVHDAAYEDTAGKTPASADPVSDKGLRPAIGESLGTPVASATAV
Km [3]: 110 µM
Km [4]: 543 µM
Km [5]: 980 µM

B2: Zea mays asparagine synthetase Zm AsnS3 (SEQ ID NO: 6, encoded by SEQ ID NO: 5) (Zea mays) (protein)
chain: MCGILAVLGCSDWSQAKRARILACSRRLKHRGPDWSGLYQHEGNFLAQQRLAVVSPLSGDQPLFNEDRTVVVVANGEIYNHKNVRKQFTGTHNFSTGSDCEVIMPLYEKYGENFVDMLDGVFAFVLYDTRDRTYVAARDAIGVNPLYIGWGSDGSVWIASEMKALNEDCVRFEIFPPGHLYSSAGGGFRRWYTPHWFQEQVPRTPYQPLVLREAFEKAVIKRLMTDVPFGVLLSGGLDSSLVASVTKRHLVETEAAEKFGTELHSFVVGLEGSPDLKAAREVADYLGTIHHEFHFTVQDGIDAIEEVIYHDETYDVTTIRASTPMFLMARKIKSLGVKMVLSGEGSDELLGGYLYFHFAPNKEEFHRETCRKVKALHQYDCLRANKATSAWGLEVRVPFLDKEFINVAMGMDPEWKMYDKNLGRIEKWVMRKAFDDDEHPYLPKHILYRQKEQFSDGVGYNWIDGLKSFTEQQVTDEMMNNAAQMFPYNTPVNKEAYYYRMIFERLFPQDSARETVPWGPSIACSTPAAIEWVEQWKASNDPSGRFISSHDSAATDHTGGKPAVANGGGHGAANGTVNGKDVAVAIAV
notes: 588 aa
Km [6]: 97 µM
Km [7]: 423 µM
Km [8]: 1200 µM

B3: Zea mays asparagine synthetase Zm AsnS2 (SEQ ID NO: 4, encoded by SEQ ID NO: 3) (Zea mays) (protein)
chain: MCGILAVLGCADEAKGSSKRSRVLELSRRLKHRGPDWSGLRQVGDCYLSHQRLAIIDPASGDQPLYNEDQSVVVAVNGEIYNHLDLRSRLAGAGHSFRTGSDCEVIAHLYEEHGEEFVDMLDGVFSFVLLDTRHGDRAGSSFFMAARDAIGVTPLYIGWGVDGSVWISSEMKALHDECEHFEIFPPGHLYSSNTGGFSRWYNPPWYDDDDDEEAVVTPSVPYDPLALRKAFEKAVVKRLMTDVPFGVLLSGGLDSSLVATVAVRHLARTEAARRWGTKLHSFCVGLEGSPDLKAAREVAEYLGTLHHEFHFTVQDGIDAIEDVIYHTETYDVTTIRASTPMFLMSRKIKSLGVKMVISGEGSDELFGGYLYFHKAPNKEELHRETCRKVKALHQYDCLRANKATSAWGLEARVPFLDKEFINAAMSIDPEWKMVQPDLGRIEKWVLRKAFDDEEQPFLPKHILYRQKEQFSDGVGYSWIDGLKAHATSNVTDKMLSNAKFIFPHNTPTTKEAYYYRMVFERFFPQKSAILTVPGGPSVACSTAKAIEWDAQWSGNLDPSGRAALGVHLAAYEHQHDPEHVPAAIAAGSGKKPRTIRVAPPGVAIEG
notes: 606 aa
Km [9]: 125 µM
Km [10]: 110 µM
Km [11]: 910 µM
